Article PMC4255369 (2014)

Legend:
Test in all cases: SPR
[1] = molecular target: human tau protein isoform 2N3R (human, UniProt P10636-5 1-410)
[2] = molecular target: mis-disordered tau protein 151-391/4R (human, UniProt P10636-8 151-391)
[3] = molecular target: mis-disordered tau 151-391/3R (human, UniProt P10636-5 151-391)
[4] = molecular target: human tau protein isoform 2N4R (human, UniProt P10636-8 1-441)
Chain of human tau protein isoform 2N4R (P10636 other isoform, or with tags, fused parts or gaps): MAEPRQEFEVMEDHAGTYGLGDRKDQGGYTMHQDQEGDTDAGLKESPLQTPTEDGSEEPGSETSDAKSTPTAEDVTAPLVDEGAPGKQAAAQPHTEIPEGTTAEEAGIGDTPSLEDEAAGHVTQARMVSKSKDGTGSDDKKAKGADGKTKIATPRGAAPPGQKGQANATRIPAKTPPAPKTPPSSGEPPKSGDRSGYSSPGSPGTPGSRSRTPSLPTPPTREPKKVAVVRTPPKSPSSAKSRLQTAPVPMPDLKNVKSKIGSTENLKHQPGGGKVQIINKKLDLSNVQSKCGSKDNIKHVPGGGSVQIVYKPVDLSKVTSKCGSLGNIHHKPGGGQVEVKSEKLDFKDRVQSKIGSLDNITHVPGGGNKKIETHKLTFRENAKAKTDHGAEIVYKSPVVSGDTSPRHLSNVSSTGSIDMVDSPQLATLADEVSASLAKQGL

Chain of human tau protein isoform 2N3R (P10636 other isoform, or with tags, fused parts or gaps): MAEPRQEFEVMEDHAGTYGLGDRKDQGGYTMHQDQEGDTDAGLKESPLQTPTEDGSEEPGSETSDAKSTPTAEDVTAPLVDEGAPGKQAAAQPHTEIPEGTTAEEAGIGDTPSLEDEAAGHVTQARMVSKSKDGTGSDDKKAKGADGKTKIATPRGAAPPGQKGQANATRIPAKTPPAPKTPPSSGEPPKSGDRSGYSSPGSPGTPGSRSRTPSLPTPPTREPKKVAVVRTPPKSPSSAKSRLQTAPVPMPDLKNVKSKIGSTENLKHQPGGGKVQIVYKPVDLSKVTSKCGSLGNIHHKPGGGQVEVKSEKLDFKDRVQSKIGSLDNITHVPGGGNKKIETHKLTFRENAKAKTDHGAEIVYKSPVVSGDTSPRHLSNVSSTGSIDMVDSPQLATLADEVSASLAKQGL
Chain of mis-disordered tau 151-391/3R (P10636 other isoform, or with tags, fused parts or gaps): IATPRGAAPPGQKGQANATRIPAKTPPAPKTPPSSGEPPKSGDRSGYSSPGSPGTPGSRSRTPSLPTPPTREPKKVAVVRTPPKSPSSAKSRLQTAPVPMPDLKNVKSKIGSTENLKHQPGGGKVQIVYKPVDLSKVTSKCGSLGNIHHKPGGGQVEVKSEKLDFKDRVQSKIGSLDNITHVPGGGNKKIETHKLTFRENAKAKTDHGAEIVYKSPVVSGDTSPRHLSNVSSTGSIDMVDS
Chain of mis-disordered tau protein 151-391/4R (P10636 468-708): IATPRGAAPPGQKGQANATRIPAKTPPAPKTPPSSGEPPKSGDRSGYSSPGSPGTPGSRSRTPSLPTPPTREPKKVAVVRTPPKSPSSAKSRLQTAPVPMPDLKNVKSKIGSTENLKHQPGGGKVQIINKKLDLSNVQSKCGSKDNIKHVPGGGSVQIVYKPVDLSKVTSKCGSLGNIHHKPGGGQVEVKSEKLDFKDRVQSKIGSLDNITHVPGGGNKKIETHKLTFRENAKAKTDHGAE

B1: monoclonal antibody DC8E8 (antibody, V domains shown)
VH: QVQLQQSGPELVKPGTSVKMPCKASGYIFTDYVISWVKQRTGQGLEWIGEIFPRSGSTYYNEKFKGKATLTADKSSNTAYMQLSSVTSEDSAVYFCARDYYGTSFAMDYWGQGTSVTVSS
VL: DIVMSQSPSSLAVSAGEKVTMSCKSSQSLLNSRTRKNYLAWYQQKPGQSPKLLIYWASTRESGVPDRFTGSGSGTDFTLTISSVQAEDLAVYYCKQSFYLRTFGGGTKLDIK
Ka [1]: 80000 M⁻¹ | Ka [2]: 7.3e+07 M⁻¹ | Ka [3]: 1.9e+06 M⁻¹ | Ka [4]: 1.1e+07 M⁻¹
